Results taken from patent US20100099610A1 (published 2010).

Key:
Test in all cases: cell-based or functional assay
hGHQ40N = hGHQ40N (human, UniProt P01241 27-217)
hGHQ141N = hGHQ141N (human, UniProt P01241 27-217)
[1] = target: wild type human growth hormone (human, UniProt P01241 27-217)
wild type human growth hormone, sequence (P01241 27-217): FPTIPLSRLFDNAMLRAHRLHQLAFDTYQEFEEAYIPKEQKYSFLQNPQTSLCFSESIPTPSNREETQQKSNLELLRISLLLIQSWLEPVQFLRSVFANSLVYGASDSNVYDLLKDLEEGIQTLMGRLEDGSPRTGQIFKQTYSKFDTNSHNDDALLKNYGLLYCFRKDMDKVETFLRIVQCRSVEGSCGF

hGHQ40N, sequence (P01241 27-217 Q66N): as the sequence (P01241 27-217) above, with Q40N counted along it
hGHQ141N, sequence (P01241 27-217 Q167N): as the sequence (P01241 27-217) above, with Q141N counted along it

| RSA Q141 (hGHQ40N) | RSA Q40 (hGHQ141N) | RS (relative selectivity against AlaPro-mTGase from S. mobaraensis) [1] | Binder |
| --- | --- | --- | --- |
| 0.06 relative to wild type TGase | 0.03 relative to wild type TGase | 3 | GlyPro-mTGase_Y75A from S. ladakanum (enzyme) GPDSDERVTPPAEPLDRMPDPYRPSYGRAETIVNNYIRKWQQVYSHRDGRKQQMTEEQREWLSYGCVGVTWVNSGQAPTNRLAFAFFDEDKYKNELKNGRPRSGETRAEFEGRVAKDSFDEAKGFQRARDVASVMNKALENAHDEGAYLDNLKKELANGNDALRNEDARSPFYSALRNTPSFKDRNGGNHDPSKMKAVIYSKHFWSGQDRSGSSDKRKYGDPEAFRPDRGTGLVDMSRDRNIPRSPTSPGESFVNFDYGWFGAQTEADADKTVWTHGNHYHAPNGSLGAMHVYESKFRNWSDGYSDFDRGAYVVTFVPKSWNTAPDKVKQGWP |
| – | – | 6.4 | GlyPro-mTGase_Y62H_Y75F from S. ladakanum (enzyme) GPDSDERVTPPAEPLDRMPDPYRPSYGRAETIVNNYIRKWQQVYSHRDGRKQQMTEEQREWLSHGCVGVTWVNSGQFPTNRLAFAFFDEDKYKNELKNGRPRSGETRAEFEGRVAKDSFDEAKGFQRARDVASVMNKALENAHDEGAYLDNLKKELANGNDALRNEDARSPFYSALRNTPSFKDRNGGNHDPSKMKAVIYSKHFWSGQDRSGSSDKRKYGDPEAFRPDRGTGLVDMSRDRNIPRSPTSPGESFVNFDYGWFGAQTEADADKTVWTHGNHYHAPNGSLGAMHVYESKFRNWSDGYSDFDRGAYVVTFVPKSWNTAPDKVTQGWP |
